Experimental data as given in PMC10786891, “Massively parallel profiling of RNA-targeting CRISPR-Cas13d”.
Substitutions are numbered along the chain they refer to. Names and notes keep the numbering of the source.

T1: EsCas13d, nuclease-dead (Eubacterium siraeum, UniProt B0MS50, R295A;H300A;R849A;H854A)
T1 sequence: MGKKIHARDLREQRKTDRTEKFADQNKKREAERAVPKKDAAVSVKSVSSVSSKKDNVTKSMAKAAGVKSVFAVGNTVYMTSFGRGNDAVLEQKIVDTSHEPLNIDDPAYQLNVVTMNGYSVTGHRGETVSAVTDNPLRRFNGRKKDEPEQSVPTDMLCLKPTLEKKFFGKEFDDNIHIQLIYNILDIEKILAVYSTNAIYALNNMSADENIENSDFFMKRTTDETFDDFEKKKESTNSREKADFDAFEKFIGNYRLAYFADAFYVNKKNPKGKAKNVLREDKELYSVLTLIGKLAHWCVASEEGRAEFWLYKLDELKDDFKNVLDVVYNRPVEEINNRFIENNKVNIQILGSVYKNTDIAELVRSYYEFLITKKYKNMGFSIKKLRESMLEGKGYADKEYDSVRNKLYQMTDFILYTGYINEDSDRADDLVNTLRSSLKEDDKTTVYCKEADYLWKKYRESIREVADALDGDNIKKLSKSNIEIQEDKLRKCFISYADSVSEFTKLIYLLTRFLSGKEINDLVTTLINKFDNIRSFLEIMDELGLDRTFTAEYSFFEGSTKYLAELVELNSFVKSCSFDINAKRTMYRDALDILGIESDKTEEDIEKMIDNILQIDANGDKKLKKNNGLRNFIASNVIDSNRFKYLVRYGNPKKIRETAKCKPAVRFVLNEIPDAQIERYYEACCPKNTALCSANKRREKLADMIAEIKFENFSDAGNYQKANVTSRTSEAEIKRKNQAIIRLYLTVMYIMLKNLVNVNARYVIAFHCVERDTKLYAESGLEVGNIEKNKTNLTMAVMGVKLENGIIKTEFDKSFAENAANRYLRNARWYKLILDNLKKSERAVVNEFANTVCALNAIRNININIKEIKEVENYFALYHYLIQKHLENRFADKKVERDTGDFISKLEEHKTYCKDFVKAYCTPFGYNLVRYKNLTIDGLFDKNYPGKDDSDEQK

B1: target 2 MT 5'PFS AUC 3'PFS AGC (mixed)
RNA 1: CACCCGUGCAAAAUUGCAGGGGUCUAAAACCUUCUCCAAAUUGUUUCAUCCU
RNA 2: GGGAAUGGAUCCACAUCUACGAAUUCAUCAGGAUGAAACAAUUUGGAGAAGAGCAGAUCGGAAGAGCACACGU
B2: target 2 MT 5'PFS AUG 3'PFS CUC (mixed)
RNA 1: B1 RNA 1
RNA 2: B1 RNA 2 with C29G, A52C, G53U
B3: target 2 MT 5'PFS UCG 3'PFS AUA (mixed)
RNA 1: B1 RNA 1
RNA 2: B1 RNA 2 with A27U, U28C, C29G, G53U, C54A
B4: target 2 MT 5'PFS GGA 3'PFS AUA (mixed)
RNA 1: B1 RNA 1
RNA 2: B1 RNA 2 with A27G, U28G, C29A, G53U, C54A
B5: target 2 MT 5'PFS GUU 3'PFS CUG (mixed)
RNA 1: B1 RNA 1
RNA 2: B1 RNA 2 with A27G, C29U, A52C, G53U, C54G
B6: target 2 MT 5'PFS UCG 3'PFS AUC (mixed)
RNA 1: B1 RNA 1
RNA 2: B1 RNA 2 with A27U, U28C, C29G, G53U
B7: target 2 MT 5'PFS AUG 3'PFS CUA (mixed)
RNA 1: B1 RNA 1
RNA 2: B1 RNA 2 with C29G, A52C, G53U, C54A
B8: target 2 MT 5'PFS UUA 3'PFS UCU (mixed)
RNA 1: B1 RNA 1
RNA 2: B1 RNA 2 with A27U, C29A, A52U, G53C, C54U
B9: target 2 MT 5'PFS UUA 3'PFS UCA (mixed)
RNA 1: B1 RNA 1
RNA 2: B1 RNA 2 with A27U, C29A, A52U, G53C, C54A
B10: target 2 MT 5'PFS CAC 3'PFS AGC (mixed)
RNA 1: B1 RNA 1
RNA 2: B1 RNA 2 with A27C, U28A
B11: target 2 MT 5'PFS ACC 3'PFS AAC (mixed)
RNA 1: B1 RNA 1
RNA 2: B1 RNA 2 with U28C, G53A
B12: target 2 MT 5'PFS GGA 3'PFS AUC (mixed)
RNA 1: B1 RNA 1
RNA 2: B1 RNA 2 with A27G, U28G, C29A, G53U
B13: target 2 MT 5'PFS UCG 3'PFS UGU (mixed)
RNA 1: B1 RNA 1
RNA 2: B1 RNA 2 with A27U, U28C, C29G, A52U, C54U
B14: target 2 MT 5'PFS CAC 3'PFS CGA (mixed)
RNA 1: B1 RNA 1
RNA 2: B1 RNA 2 with A27C, U28A, A52C, C54A
B15: target 2 MT 5'PFS GAU 3'PFS UGA (mixed)
RNA 1: B1 RNA 1
RNA 2: B1 RNA 2 with A27G, U28A, C29U, A52U, C54A
B16: target 2 MT 5'PFS GCU 3'PFS CGG (mixed)
RNA 1: B1 RNA 1
RNA 2: B1 RNA 2 with A27G, U28C, C29U, A52C, C54G
B17: target 2 MT 5'PFS GAU 3'PFS UGC (mixed)
RNA 1: B1 RNA 1
RNA 2: B1 RNA 2 with A27G, U28A, C29U, A52U
B18: target 2 MT 5'PFS AUC 3'PFS AGA (mixed)
RNA 1: B1 RNA 1
RNA 2: B1 RNA 2 with C54A
B19: target 2 MT 5'PFS ACG 3'PFS AAU (mixed)
RNA 1: B1 RNA 1
RNA 2: B1 RNA 2 with U28C, C29G, G53A, C54U
B20: target 2 MT 5'PFS ACC 3'PFS AAU (mixed)
RNA 1: B1 RNA 1
RNA 2: B1 RNA 2 with U28C, G53A, C54U
B21: target 2 MT 5'PFS UUA 3'PFS UCG (mixed)
RNA 1: B1 RNA 1
RNA 2: B1 RNA 2 with A27U, C29A, A52U, G53C, C54G
B22: target 2 MT 5'PFS GGA 3'PFS AUG (mixed)
RNA 1: B1 RNA 1
RNA 2: B1 RNA 2 with A27G, U28G, C29A, G53U, C54G
B23: target 2 MT 5'PFS ACC 3'PFS AAA (mixed)
RNA 1: B1 RNA 1
RNA 2: B1 RNA 2 with U28C, G53A, C54A
B24: target 2 MT 5'PFS GAU 3'PFS UGU (mixed)
RNA 1: B1 RNA 1
RNA 2: B1 RNA 2 with A27G, U28A, C29U, A52U, C54U
B25: target 2 MT 5'PFS CAC 3'PFS AAC (mixed)
RNA 1: B1 RNA 1
RNA 2: B1 RNA 2 with A27C, U28A, G53A
B26: target 2 MT 5'PFS GGA 3'PFS AUU (mixed)
RNA 1: B1 RNA 1
RNA 2: B1 RNA 2 with A27G, U28G, C29A, G53U, C54U
B27: target 2 MT 5'PFS CAC 3'PFS CGC (mixed)
RNA 1: B1 RNA 1
RNA 2: B1 RNA 2 with A27C, U28A, A52C
B28: target 2 MT 5'PFS ACG 3'PFS AAC (mixed)
RNA 1: B1 RNA 1
RNA 2: B1 RNA 2 with U28C, C29G, G53A
B29: target 2 MT 5'PFS CAC 3'PFS AAA (mixed)
RNA 1: B1 RNA 1
RNA 2: B1 RNA 2 with A27C, U28A, G53A, C54A
B30: target 2 MT 5'PFS ACG 3'PFS AAG (mixed)
RNA 1: B1 RNA 1
RNA 2: B1 RNA 2 with U28C, C29G, G53A, C54G
B31: target 2 MT 5'PFS UAU 3'PFS AUC (mixed)
RNA 1: B1 RNA 1
RNA 2: B1 RNA 2 with A27U, U28A, C29U, G53U
B32: target 2 MT 5'PFS GCU 3'PFS CGA (mixed)
RNA 1: B1 RNA 1
RNA 2: B1 RNA 2 with A27G, U28C, C29U, A52C, C54A
B33: target 2 MT 5'PFS GAC 3'PFS UCU (mixed)
RNA 1: B1 RNA 1
RNA 2: B1 RNA 2 with A27G, U28A, A52U, G53C, C54U
B34: target 2 MT 5'PFS AUG 3'PFS CUU (mixed)
RNA 1: B1 RNA 1
RNA 2: B1 RNA 2 with C29G, A52C, G53U, C54U
B35: target 1 A9C,G15U (mixed)
RNA 1: CACCCGUGCAAAAAUGCAGGGGUCUAAAACUGAGCGGAUAACCUCUCUAUGG
RNA 2: GGGAAUGGAUCCACAUCUACGAAUUCGUACCAUAGAUAGGUUCUCCGCUCACCGAGAUCGGAAGAGCACACGU
B36: target 1 C7A,A18G (mixed)
RNA 1: B35 RNA 1
RNA 2: B35 RNA 2 with A34G, U37G, C43A, C45A
B37: target 1 G5A,C7U (mixed)
RNA 1: B35 RNA 1
RNA 2: B35 RNA 2 with U37G, C43A, C45U, G47A
B38: target 1 insG 3' of 18,insU 3' of 17 (mixed)
RNA 1: B35 RNA 1
RNA 2: GGGAAUGGAUCCACAUCUACGAAUUCGUACCAUAGGUAGAGGUUAUCCGCUCACCGAGAUCGGAAGAGCACACGU

biological target: T1, EsCas13d, nuclease-dead; assay: crRNA (strand 1, pre-loaded); Mg2+; 40 mM Tris-HCl pH 7.5, 150 mM NaCl, 6 mM MgCl2, 1 mM DTT, 0.1% Tween-20, 0.2 mg/ml BSA; 25 C; 10 min per concentration, then washed; conditions: tags: His6-TwinStrep-SUMO cleaved; N-terminal SNAP kept (SNAP-Surface 488); label: 3' end held by stalled T7 RNA polymerase

In order of falling Kd:
1. B13  ~120 nM
2. B18  ~80 nM
3. B6  ~70 nM
4. B35  ~70 nM
5. B31  53 ± 9 nM
6. B36  50 ± 8 nM
7. B38  30.3 ± 2.6 nM
8. B3  29 ± 9 nM
9. B8  28 ± 4 nM
10. B33  27 ± 6 nM
11. B21  25 ± 4 nM
12. B32  23 ± 5 nM
13. B5  21.3 ± 2.8 nM
14. B24  21.2 ± 2.2 nM
15. B1  21 ± 8 nM
16. B9  20 ± 4 nM
17. B15  19 ± 5 nM
18. B16  19 ± 4 nM
19. B2  16 ± 5 nM
20. B34  15.4 ± 2.9 nM
21. B17  14.9 ± 1.9 nM
22. B12  12.4 ± 1.9 nM
23. B11  10.5 ± 3.1 nM
24. B4  10.2 ± 1.5 nM
25. B22  9.8 ± 0.9 nM
26. B30  9.8 ± 1.8 nM
27. B23  9.3 ± 2.7 nM
28. B26  9 ± 1 nM
29. B20  8 ± 1.2 nM
30. B37  7.7 ± 0.5 nM
31. B7  7.5 ± 0.9 nM
32. B28  5.5 ± 1.2 nM
33. B19  5.4 ± 1.3 nM
34. B14  3.01 ± 0.34 nM
35. B25  1.98 ± 0.3 nM
36. B10  1.87 ± 0.32 nM
37. B29  1.71 ± 0.3 nM
38. B27  1.69 ± 0.2 nM
